Data as given in PMC4866720, “A Genetic Screen Identifies a Requirement for Cysteine-Rich–Receptor-Like Kinases in Rice NH1 (OsNPR1)-Mediated Immunity”.

T1: TGA2.1 (Oryza sativa (rice), UniProt Q7X993 1-334)
T1 sequence: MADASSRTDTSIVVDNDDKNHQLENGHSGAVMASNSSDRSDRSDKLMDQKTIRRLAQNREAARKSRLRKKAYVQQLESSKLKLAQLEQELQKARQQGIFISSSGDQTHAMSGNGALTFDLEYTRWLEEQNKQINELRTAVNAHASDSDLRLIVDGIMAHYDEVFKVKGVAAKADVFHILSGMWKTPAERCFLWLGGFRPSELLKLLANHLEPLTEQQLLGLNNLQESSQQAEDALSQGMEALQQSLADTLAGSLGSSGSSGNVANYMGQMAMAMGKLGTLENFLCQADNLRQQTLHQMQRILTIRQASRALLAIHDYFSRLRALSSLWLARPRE

B1: CRK10 promoter TGA site mt competitor (dsDNA)
DNA 1: CTCTTTGTGGTGTTGTTCTTC
DNA 2: GAAGAACAACACCACAAAGAG
B2: CRK10 promoter TGA site wt probe (dsDNA)
DNA 1: CTCTTTGTGACGTTGTTCTTC
DNA 2: GAAGAACAACGTCACAAAGAG

Legend:
TGA2.1 [1] = biological target: T1, TGA2.1; test: competition; EMSA competitor 5X, 20X, 100X against biotin-wt probe; EMSA with biotin probe, chemiluminescent detection; buffer, salt, pH and temperature not stated; settings: protein: recombinant; chain copies: 2
TGA2.1 [2] = biological target: T1, TGA2.1; test: EMSA; competed by unlabeled wt oligonucleotide (5X, 20X, 100X tested); EMSA with biotin probe, chemiluminescent detection; buffer, salt, pH and temperature not stated; settings: protein: recombinant; chain copies: 2; label: 5'-biotin on top strand (probe)

Binder | binding result (TGA2.1 [1]) | binding result (TGA2.1 [2])
B1 | no binding | 
B2 |  | binds
